The values below come from patent publication US20250320305A1.

Assay [1] concerns the target biotinylated recombinant human FAP (human) (UniProt Q12884). Description: SPR (Biacore), biotinylated huFAP on CAPture chip, Fab analyte.
For assay [2] the target is unchanged. The experiment in a line: SPR (Biacore). (In general: In SPR one partner is held on a chip, and binding of the other changes the refractive index at the surface.)
Assay [3] addresses human CD40 expressed on cells (human) (UniProt P25942). The experiment in a line: flow cytometry, primary human B cells.
Assay [4] has the same target. Description: flow cytometry, Raji cells. (A flow cytometer gives signals particle by particle.)
The target in assay [5] is human CD40 extracellular domain with C-terminal His-AviTag (human) (UniProt P25942). The experiment in a line: SPR, antibody captured, CD40 ECD analyte.

B1: 4B9_Fab (Fab, from a related filing, V domains shown)
VH: EVQLLESGGGLVQPGGSLRLSCAASGFTFSSYAMSWVRQAPGKGLEWVSAIIGSGASTYYADSVKGRFTISRDNSKNTLYLQMNSLRAEDTAVYYCAKGWFGGFNYWGQGTLVTVSS
VL: EIVLTQSPGTLSLSPGERATLSCRASQSVTSSYLAWYQQKPGQAPRLLINVGSRRATGIPDRFSGSGSGTDFTLTISRLEPEDFAVYYCQQGIMLPPTFGQGTKVEIK
In general, Kd refers to the equilibrium constant for the complex coming apart. The koff is the rate constant with which the complex falls apart. As usually defined, the kon is the rate constant with which the complex forms. With B1, in assay [1], the Kd turned out to be 0.43 nM, the koff came to 0.00078 s⁻¹ and the kon was determined as 1.82e+06 M⁻¹ s⁻¹. In assay [2], the equilibrium dissociation constant (Kd) was determined as 0.279 nM, the T ½ was found to be 55 min, the off-rate (koff) worked out at 0.000208 s⁻¹ and the association rate constant (kon) turned out to be 747000 M⁻¹ s⁻¹.

B2: P1AD4470, anti-CD40 control antibody (CD40 IgG1) (antibody, from a related filing, V domains shown)
VH: EVQLVESGGGLVQPGGSLRLSCAASGYSFTGYYIHWVRQAPGKGLEWVARVIPNAGGTSYNQKFKGRFTLSVDNSKNTAYLQMNSLRAEDTAVYYCAREGIYWWGQGTLVTVSS
VL: DIQMTQSPSSLSASVGDRVTITCRSSQSLVHSNGNTFLHWYQQKPGKAPKLLIYTVSNRFSGVPSRFSGSGSGTDFTLTISSLQPEDFATYFCSQTTHVPWTFGQGTKVEIKR
The term EC50 denotes the concentration giving half of the maximal effect. Read a high EC50 as a need for much substance. B2 returned an EC50 in assay [3] of 0.333 nM. Besides, in assay [4], the EC50 was found to be 0.09 µg/mL. In assay [5], this molecule returned a Kd of 4.6 nM, a koff of 0.00781 s⁻¹ and an on-rate (kon) of 1.69e+06 M⁻¹ s⁻¹.
